According to US9561272B2, “Compositions and methods for modulating immune responses” (The University of Queensland, priority 2006, dated 2017):

What was measured:
[1] = Entrapment efficiency of NF-κB inhibitor and antigen in liposomes (% EE); type: physicochemical; conditions: EPC liposomes; for entrapment efficiency of protein antigen in liposomes: freeze-thawing cycle repeated 5 times; for entrapment efficiency of NF-κB inhibitor in liposomes: after removal of non-entrapped drug
Method: Entrapment efficiency of protein following this process was typically at least 20%, approximately 60% for Bay and greater than 80% for both Quecertin and Curcumin. Empty, NF-κB inhibitor or protein only liposomes were prepared as above, by omitting the relevant bioactive/s. Following removal of non-entrapped NF-κB inhibitor and antigen, the amount of NF-κB inhibitor and antigen entrapped in liposome could be quantified by assay method. The entrapment efficiency was expressed as: [formula] […] The resulting solution was then kept at −20° C. After 30 minutes, the sample was centrifuged at maximum speed at 4° C. for 10 minutes (EBA 12R centrifuge, Hettich Zentrifugen, Germany) to remove precipitated protein. The concentration of Bay 11-7082 in the resulting supernatant was then assayed and calculated based on the established calibration (with consideration to the dilutions performed) (data not shown). […] The concentration of either quercetin or curcumin in the resulting solution was then assayed and calculated based on the established calibration curves (with consideration to the dilutions performed). […] The quantity of model antigen entrapped in liposomes was determined by a standard bicinchoninic acid (BCA) protein assay with slight modification. Briefly, liposomes loaded with OVA or mBSA were lysed using ethanol or iso-propanol at 20-fold dilution, respectively, and then stored at −20° C. After 30 minutes, the sample was centrifuged at maximum speed at 4° C. for 10 minutes (EBA 12R centrifuge, Hettich Zentrifugen, Germany). The supernatant containing lipid and NF-κB inhibitor was discarded. The protein pellet was then placed in an Alpha 2-4 LD Freeze-drier (Alpha 2-4 LD Freeze-drier, Martin Christ, Germany) to remove remaining solvent. One hundred μL of 2.5% w/v sodium dodecyl sulfate (SDS) solution (for OVA) or water (for mBSA) was added to redissolve the protein pellet. SDS was required for aiding to re-dissolve OVA pellet. The resulting protein solution was mixed with 2 mL of BCA solution (Pierce Biotechnology Inc., USA) and incubated at 37° C. for 30 minutes. After incubation, the absorbance of the solution was measured using a Cary 50 UV-VIS spectrophotometer (Varian, Calif., USA) at a wavelength of 562 nm. The concentration of OVA and mBSA was calculated on the basis of calibration curves established using a series of known concentrations of either OVA or mBSA solution ranging from 0.25 mg/mL to 2 mg/mL.

[2] = cited from earlier work
NF-κB = conditions: Table 3, miscellaneous inhibitors of NF-κB; step of NF-κB function inhibited, per the cited reference; cited from earlier work
[3] = previous experiment, thin film method without freeze-thawing, same EPC concentration (Copland 2003); cited from earlier work

methylated bovine serum albumin [mBSA]
entrapment efficiency of protein antigen in liposomes [1]: approximately 25%

Cc1ccc(S(=O)(=O)/C=C/C#N)cc1 [Bay 11-7082, E3((4-methylphenyl)-sulfonyl)-2-propenenitrile, reference compound]
entrapment efficiency of NF-κB inhibitor in liposomes [1]: around 60% | entrapment efficiency of NF-κB inhibitor in liposomes ([1]; listed as Bay): approximately 60% | log P [2]: 1.63

B1: NRF (NF-κB repression factor) (protein, UniProt O15226 1-690, looked up)
NF-kappa-B-repressing factor: MEKILQMAEGIDIGEMPSYDLVLSKPSKGQKRHLSTCDGQNPPKKQAGSKFHARPRFEPVHFVASSSKDERQEDPYGPQTKEVNEQTHFASMPRDIYQDYTQDSFSIQDGNSQYCDSSGFILTKDQPVTANMYFDSGNPAPSTTSQQANSQSTPEPSPSQTFPESVVAEKQYFIEKLTATIWKNLSNPEMTSGSDKINYTYMLTRCIQACKTNPEYIYAPLKEIPPADIPKNKKLLTDGYACEVRCQNIYLTTGYAGSKNGSRDRATELAVKLLQKRIEVRVVRRKFKHTFGEDLVVCQIGMSSYEFPPALKPPEDLVVLGKDASGQPIFNASAKHWTNFVITENANDAIGILNNSASFNKMSIEYKYEMMPNRTWRCRVFLQDHCLAEGYGTKKTSKHAAADEALKILQKTQPTYPSVKSSQCHTGSSPRGSGKKKDIKDLVVYENSSNPVCTLNDTAQFNRMTVEYVYERMTGLRWKCKVILESEVIAEAVGVKKTVKYEAAGEAVKTLKKTQPTVINNLKKGAVEDVISRNEIQGRSAEEAYKQQIKEDNIGNQLLRKMGWTGGGLGKSGEGIREPISVKEQHKREGLGLDVERVNKIAKRDIEQIIRNYARSESHTDLTFSRELTNDERKQIHQIAQKYGLKSKSHGVGHDRYLVVGRKRRKEDLLDQLKQEGQVGHYELVMPQAN
Effect or point of inhibition (NF-κB): Transactivation

B2: Uteroglobin (protein, UniProt P11684 22-91, looked up)
Uteroglobin: EICPSFQRVIETLLMDTPSSYEAAMELFSPDQDMREAGAQLKKLVDTLPQKPRESIIKLMEKIAQSSLCN
Effect or point of inhibition (NF-κB): DNA binding

B3: SIRT1 Deacetylase overexpression (protein, UniProt Q96EB6 2-747, looked up)
NAD-dependent protein …: ADEAALALQPGGSPSAAGADREAASSPAGEPLRKRPRRDGPGLERSPGEPGGAAPEREVPAAARGCPGAAAAALWREAEAEAAAAGGEQEAQATAAAGEGDNGPGLQGPSREPPLADNLYDEDDDDEGEEEEEAAAAAIGYRDNLLFGDEIITNGFHSCESDEEDRASHASSSDWTPRPRIGPYTFVQQHLMIGTDPRTILKDLLPETIPPPELDDMTLWQIVINILSEPPKRKKRKDINTIEDAVKLLQECKKIIVLTGAGVSVSCGIPDFRSRDGIYARLAVDFPDLPDPQAMFDIEYFRKDPRPFFKFAKEIYPGQFQPSLCHKFIALSDKEGKLLRNYTQNIDTLEQVAGIQRIIQCHGSFATASCLICKYKVDCEAVRGDIFNQVVPRCPRCPADEPLAIMKPEIVFFGENLPEQFHRAMKYDKDEVDLLIVIGSSLKVRPVALIPSSIPHEVPQILINREPLPHLHFDVELLGDCDVIINELCHRLGGEYAKLCCNPVKLSEITEKPPRTQKELAYLSELPPTPLHVSEDSSSPERTSPPDSSVIVTLLDQAAKSNDDLDVSESKGCMEEKPQEVQTSRNVESIAEQMENPDLKNVGSSTGEKNERTSVAGTVRKCWPNRVAKEQISRRLDGNQYLFLPPNRYIFHGAEVYSDSEDDVLSSSSCGSNSDSGTCQSPSLEEPMEDESEIEEFYNGLEDEPDVPERAGGAGFGTDGDDQEAINEAISVKQEVTDMNYPSNKS
Effect or point of inhibition (NF-κB): DNA binding

B4: ovalbumin (protein, UniProt P01012 2-386, looked up)
Ovalbumin: GSIGAASMEFCFDVFKELKVHHANENIFYCPIAIMSALAMVYLGAKDSTRTQINKVVRFDKLPGFGDSIEAQCGTSVNVHSSLRDILNQITKPNDVYSFSLASRLYAEERYPILPEYLQCVKELYRGGLEPINFQTAADQARELINSWVESQTNGIIRNVLQPSSVDSQTAMVLVNAIVFKGLWEKAFKDEDTQAMPFRVTEQESKPVQMMYQIGLFRVASMASEKMKILELPFASGTMSMLVLLPDEVSGLEQLESIINFEKLTEWTSSNVMEERKIKVYLPRMKMEEKYNLTSVLMAMGITDVFSSSANLSGISSAESLKISQAVHAAHAEINEAGREVVGSAEAGVDAASVSEEFRADHPFLFCIKHIATNAVLFFGRCVSP
notes: model antigen
entrapment efficiency of protein antigen in liposomes [1]: ~20%

B5: FITC-OVA: fluorescein isothiocyanate conjugated to ovalbumin (conjugate, UniProt P01012 2-386, looked up)
Ovalbumin: B4 Ovalbumin
modifications: FITC label
notes: fluorescein isothiocyanate conjugated to ovalbumin
entrapment efficiency of FITC-OVA in liposomes [3]: less than 5%
